# Data reported in patent US9593305B2, “Differentiation of pluripotent stem cells” (Janssen Biotech, Inc., priority 2008, dated 2017).
# Experiments:
# [1] = test system: H1 human embryonic stem cells; assay: Definitive endoderm formation with TGF superfamily members, SOX17 and cell number (Example 14); assay type: cell-based; conditions: dose titration with Wnt3a, Compound 34, or both
# Experimental: Clusters were centrifuged at low speed to collect a cell pellet and remove residual dispase. […] All human embryonic stem cell lines were maintained at passage numbers less than 50 and routinely evaluated for normal karyotype and absence of mycoplasma.
# Cells were washed again three times with PBS and blocked with 4% chicken serum (Invitrogen; Cat #16110082) in PBS for 30 minutes at room temperature. […] Plates were washed once with PBS and left in 100 μl/well PBS for imaging.
# [2] = test system: H1 human embryonic stem cells; assay: Definitive endoderm formation with GDF family members, SOX17 and cell number (Example 13); assay type: cell-based; conditions: for SOX17 expression, GDF growth factor substituting for activin A: 100 ng/ml GDF, alone or with Wnt3a, Compound 34 or Compound 56, four days
# Experimental: Stock cultures of human embryonic stem cells (H1 human embryonic stem cell line) were maintained in an undifferentiated, pluripotent state on reduced growth factor […]™ (BD Biosciences; Cat #356231)-coated dishes in MEF conditioned medium with passage on average every four days. Passage was performed by exposing cell cultures to a solution of 1 mg/ml dispase (Invitrogen; Cat #17105-041) for 5 to 7 minutes at 37° C. followed by rinsing the monolayer with MEF conditioned culture medium and gentle scraping to recover cell clusters. Clusters were centrifuged at low speed to collect a cell pellet and remove residual dispase. Cell clusters were split at a 1:3 or 1:4 ratio for routine maintenance culture or a 1:1 ratio for immediate assay. All human ES cell lines were maintained at passage numbers less than 50 and routinely evaluated for normal karyotype and absence of mycoplasma.
# Cell clusters were evenly resuspended in MEF conditioned medium supplemented with 8 ng/ml bFGF and seeded onto reduced growth factor […]™-coated 96-well Packard VIEWPLATES (PerkinElmer; Cat #6005182) in volumes of 0.1 ml/well. Daily feeding was conducted by aspirating spent culture medium from each well and replacing with an equal volume of fresh medium. Plates were maintained at 37° C., 5% CO2 throughout the duration of assay.
# The assay was initiated by aspirating the culture medium from each well and adding back aliquots (100 μl) of test medium. Test conditions were performed in triplicate over a total four-day assay period, feeding on day 1 and day 3 by aspirating and replacing the medium from each well with fresh test medium. Various members of the GDF family of proteins were obtained for testing as follows: GDF-3 (PeproTech; Cat #120-22); GDF-5 (DePuy Orthopaedics, Inc., a Johnson & Johnson company); GDF-8 (R&D Systems; Cat #788-G8); GDF-10 (R&D Systems; Cat #1543-BP); GDF11 (PeproTech; Cat #120-11); GDF-15 (R&D Systems; Cat #957-GD). On the first day of assay, all wells received an aliquot (80 μl) of basal medium DMEM:F12 medium (Invitrogen; Cat #11330-032) supplemented with 0.5% fetal bovine serum (Hyclone; Cat #SH30070.03). A series of five different control or experimental test samples was created to evaluate activin A or various GDFs in combination with Wnt3a or Compound 34 or Compound 56. These test samples were added in 20 μl aliquots (5× concentrated) to appropriately matched assay wells to yield a final assay volume of 100 μl in each well at the final assay conditions indicated. In the first set of control samples, the following conditions were tested: 1) no additive (i.e. no supplementary growth factor or small molecule); 2) 100 ng/ml activin A (PeproTech; Cat #120-14) in combination with 20 ng/ml Wnt3a (R&D Systems; Cat #1324-WN/CF); 3) 20 ng/ml Wnt3a alone; 4) Compound 34 alone (2.5 μM) without any growth factor or small molecule; 5) Compound 56 alone (2.5 μM) without any growth factor or small molecule. In the second set of test samples, the following conditions were tested in combination with 100 ng/ml GDF3: 1) no additive (i.e. GDF-3 alone); 2) 20 ng/ml Wnt3a; 3) 20 ng/ml Wnt3a with Compound 34 (2.5 μM); 4) Compound 34 (2.5 μM); 5) Compound 56 (2.5 μM); and 6) 20 ng/ml Wnt3a with Compound 56 (2.5 μM). In the third set of test samples, each of the six conditions was combined with 100 ng/ml GDF-5. In the fourth set of test samples, each of the six conditions was combined with 100 ng/ml GDF-8. In the fifth set of test samples, each of the six conditions was combined with 100 ng/ml GDF-10. In the sixth set of test samples, each of the six conditions was combined with 100 ng/ml GDF-11. In the seventh set of test samples, each of the six conditions was combined with 100 ng/ml GDF-15. On the third day of assay, all wells for all test samples, received 100 ng/ml Activin A or 100 ng/ml respective GDF growth factor, without Wnt3a or Compound 34 or Compound 56, diluted into DMEM:F12 medium supplemented with 2% FBS. […]
Molecule,"SOX17 expression, GDF growth factor substituting for activin A [2]",further results
"TGFβ-1: TGF superfamily growth factor, R&D Systems",–,induction of SOX17 expression compared to the Wnt3a treatment alone [1]: weak or negligible
"GDF-3: member of the GDF family of proteins (PeproTech) (protein, UniProt Q9NR23 251-364, looked up) Growth/differentiation factor …: AAIPVPKLSCKNLCHRHQLFINFRDLGWHKWIIAPKGFMANYCHGECPFSLTISLNSSNYAFMQALMHAVDPEIPQAVCIPTKLSPISMLYQDNNDNVILRHYEDMVVDECGCG",induced weak expression of SOX17,–
"Wnt3a: Wnt3a recombinant protein (R&D Systems) (protein, UniProt P56704 19-352, looked up) Protein Wnt-3a: SYPIWWSLAVGPQYSSLGSQPILCASIPGLVPKQLRFCRNYVEIMPSVAEGIKIGIQECQHQFRGRRWNCTTVHDSLAIFGPVLDKATRESAFVHAIASAGVAFAVTRSCAEGTAAICGCSSRHQGSPGKGWKWGGCSEDIEFGGMVSREFADARENRPDARSAMNRHNNEAGRQAIASHMHLKCKCHGLSGSCEVKTCWWSQPDFRAIGDFLKDKYDSASEMVVEKHRESRGWVETLRPRYTYFKVPTERDLVYYEASPNFCEPNPETGSFGTRDRTCNVSSHGIDGCDLLCCGRGHNARAERRREKCRCVFHWCCYVSCQECTRVYDVHTCK",–,"SOX17 expression, reagent alone ([2]; 20 ng/ml Wnt3a or 2.5 μM compound alone, four days): failed to induce SOX17 expression"
"GDF11: member of the GDF family of proteins (PeproTech) (protein, UniProt O95390 299-407, looked up) Growth/differentiation factor …: NLGLDCDEHSSESRCCRYPLTVDFEAFGWDWIIAPKRYKANYCSGQCEYMFMQKYPHTHLVQQANPRGSAGPCCTPTKMSPINMLYFNDKQQIIYGKIPGMVVDRCGCS",induced significant levels of SOX17 expression,–
"GDF-5: member of the GDF family of proteins (DePuy Orthopaedics) (protein, UniProt P43026 382-501, looked up) Growth/differentiation factor …: APLATRQGKRPSKNLKARCSRKALHVNFKDMGWDDWIIAPLEYEAFHCEGLCEFPLRSHLEPTNHAVIQTLMNSMDPESTPPTCCVPTRLSPISILFIDSANNVVYKQYEDMVVESCGCR",induced weak expression of SOX17,–
"GDF10: member of the GDF family of proteins (R&D Systems) (protein, UniProt P55107 369-478, looked up) Growth/differentiation factor …: QWDEPRVCSRRYLKVDFADIGWNEWIISPKSFDAYYCAGACEFPMPKIVRPSNHATIQSIVRAVGIIPGIPEPCCVPDKMNSLGVLFLDENRNVVLKVYPNMSVDTCACR",induced significant levels of SOX17 expression,–
"BMP3: growth factor protein, R&D Systems (protein, UniProt P12645 363-472, looked up) Bone morphogenetic protein 3: QWIEPRNCARRYLKVDFADIGWSEWIISPKSFDAYYCSGACQFPMPKSLKPSNHATIQSIVRAVGVVPGIPEPCCVPEKMSSLSILFFDENKNVVLKVYPNMTVESCACR",–,induction of SOX17 expression compared to the Wnt3a treatment alone [1]: weak or negligible
"GDF15: member of the GDF family of proteins (R&D Systems) (protein, UniProt Q99988 195-308, looked up) Growth/differentiation factor …: ARARNGDHCPLGPGRCCRLHTVRASLEDLGWADWVLSPREVQVTMCIGACPSQFRAANMHAQIKTSLHRLKPDTVPAPCCVPASYNPMVLIQKTDTGVSLQTYDDLLAKDCHCI",induced significant levels of SOX17 expression,–
